# Results taken from patent US20250144178A1, “PHARMACEUTICAL COMPOSITION FOR CANCER TREATMENT COMPRISING FUSION PROTEIN INCLUDING IL-12 AND ANTI-FAP ANTIBODY AND ANTICANCER AGENT” (KANAPH THERAPEUTICS INC., priority 2022, published 2025).
# Where two headings read alike, the source gives them in different places.
# T1: recombinant mouse FAP (Mus musculus, UniProt P97321)
# T1 sequence (P97321 1-761): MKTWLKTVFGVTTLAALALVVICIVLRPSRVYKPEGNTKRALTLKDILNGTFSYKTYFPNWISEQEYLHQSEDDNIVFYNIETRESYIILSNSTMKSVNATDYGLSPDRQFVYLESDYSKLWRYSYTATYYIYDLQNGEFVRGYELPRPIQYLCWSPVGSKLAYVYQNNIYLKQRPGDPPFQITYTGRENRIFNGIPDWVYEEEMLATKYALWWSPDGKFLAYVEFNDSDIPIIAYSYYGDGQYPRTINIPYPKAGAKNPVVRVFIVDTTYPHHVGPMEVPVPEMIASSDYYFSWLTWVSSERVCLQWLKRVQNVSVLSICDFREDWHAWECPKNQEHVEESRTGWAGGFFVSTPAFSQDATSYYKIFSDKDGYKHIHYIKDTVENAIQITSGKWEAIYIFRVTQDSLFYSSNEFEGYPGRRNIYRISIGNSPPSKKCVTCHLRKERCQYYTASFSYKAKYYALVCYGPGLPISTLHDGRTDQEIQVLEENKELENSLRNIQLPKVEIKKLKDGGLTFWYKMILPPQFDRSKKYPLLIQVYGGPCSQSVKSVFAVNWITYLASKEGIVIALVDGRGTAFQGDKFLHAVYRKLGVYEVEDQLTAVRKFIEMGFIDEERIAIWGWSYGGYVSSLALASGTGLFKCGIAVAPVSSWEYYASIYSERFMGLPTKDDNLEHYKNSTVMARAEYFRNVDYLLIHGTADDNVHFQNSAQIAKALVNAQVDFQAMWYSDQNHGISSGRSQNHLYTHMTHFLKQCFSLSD
# B1: T1.03m: K&H bispecific: anti-mu FAP/mu IL-12 mut2, mu IgG2a DANG (seq18, seq19, seq22) (antibody)
# heavy: QVQLQQSGAELARPGASVNLSCKASGYTFTNNGINWLKQRTGQGLEWIGEIYPRSTNTLYNEKFKGKATLTADRSSNTAYMELRSLTSEDSAVYFCARTLTAPFAFWGQGTLVTVSAAKTTAPSVYPLAPVCGDTTGSSVTLGCLVKGYFPEPVTLTWNSGSLSSGVHTFPAVLQSDLYTLSSSVTVTSSTWPSQSITCNVAHPASSTKVDKKIEPRGPTIKPCPPCKCPAPNLLGGPSVFIFPPKIKDVLMISLSPIVTCVVVAVSEDDPDVQISWFVNNVEVHTAQTQTHREDYGSTLRVVSALPIQHQDWMSGKEFKCKVNNKDLPAPIERTISKPKGSVRAPQVYVLPPPEEEMTKKQVTLWCMVTDFMPEDIYVEWTNNGKTELNYKNTEPVLDSDGSYFMYSKLRVEKKNWVERNSYSCSVVHEGLHNHHTTKSFSRTPGK
# light: QIVLTQSPAIMSASPGEKVTMTCSASSGVNFMHWYQQKSGTSPKRWIFDTSKLASGVPARFSGSGSGTSYSLTISSMEAEDAATYYCQQWSFNPPTFGGGTKLEIKRADAAPTVSIFPPSSEQLTSGGASVVCFLNNFYPKDINVKWKIDGSERQNGVLNSWTDQDSKDSTYSMSSTLTLTKDEYERHNSYTCEATHKTSTSPIVKSFNRNEC
# chain: MWELEKDVYVVEVDWTPDAPGETVNLTCDTPEEDDITWTSDQRHGVIGSGKTLTITVKEFLDAGQYTCHKGGETLSHSHLLLHKKENGIWSTEILKNFKNKTFLKCEAPNYSGRFTCSWLVQRNMDLKFNIKSSSSSPDSRAVTCGMASLSAEKVTLDQRDYEKYSVSCQEDVTCPTAEETLPIELALEARQQNKYENYSTSFFIRDIIKPDPPKNLQMKPLKNSQVEVSWEYPDSWSTPHSYFSLKFFVRIQAAAEKMAETEEGCNQKGAFLVEKTSTEVQCKGGNVCVQAQDRYYNSSCSKWACVPCRVRSGGGGSGGGGSGGGGSRVIPVSGPARCLSQSRNLLKTTDDMVKTAREKLKHYSCTAEDIDHEDITRDQTSTLKTCLPLELHKNESCLATRETSSTTRGSCLPPQKTSLMMTLCLGSIYEDLKMYQTEFQAINAALQNHNHQQIILDKGMLVAIDELMQSLNHNGETLRQKPPVGEADPYRVKMKLCILLHAFSTRVVTINRVMGYLSSAGGGGSGGGGSEPRGPTIKPCPPCKCPAPNLLGGPSVFIFPPKIKDVLMISLSPIVTCVVVAVSEDDPDVQISWFVNNVEVHTAQTQTHREDYGSTLRVVSALPIQHQDWMSGKEFKCKVNNKDLPAPIERTISKPKGSVRAPQVYVLPPPEEEMTKKQVTLSCAVTDFMPEDIYVEWTNNGKTELNYKNTEPVLDSDGSYFMVSKLRVEKKNWVERNSYSCSVVHEGLHNHHTTKSFSRTPGK
# Columns and labels:
# [1] = biological target: T1, recombinant mouse FAP; experiment: Surface plasmon resonance binding to recombinant mouse FAP; settings: SPR, 2 μg/ml protein, FIGS. 13 and 14
# Experimental: The surface of the CM5 chip was activated with a 1:1 mixture of […] (N-hydroxysuccinimide) and […] (1-Ethyl-3-(3-dimethylaminopropyl) carbodiimide), and 25 μg/ml of anti-mouse IgG (Fc) antibody was immobilized for 400 seconds at a rate of 10 μl/min. The remaining active ester groups were blocked with 1 M ethanolamine. T1.01m, T1.02m and T1.03m were diluted to 2 μg/ml and reacted on the CM5 chip immobilized with the anti-mouse IgG (Fc) antibody. The recombinant mouse FAP was diluted to 200 nM in 1×HBS-EP+buffer solution and diluted by serial dilution. The diluted recombinant mouse FAP was reacted at a rate of 30 μl/min. The association and dissociation times were 180 seconds and 400 seconds, respectively. After the dissociation, stabilization was performed for 60 seconds, and then a regeneration was performed for 30 seconds with a 10 mM glycine pH 1.5 solution at a rate of 30 μl/min.
# [2] = test system: HEK-Blue IL-12 cells; experiment: Signaling ability in IL-12 recognizing cells (STAT4 inducible SEAP reporter); format: cell-based, human; settings: serial dilution from 4 nM, 24 hours, FIG. 18
# Experimental: The HEK-Blue IL-12 cell line transformed with the IL-12 receptor gene and the STAT4 inducible SEAP reporter gene into HEK293 cells, which are human embryonic kidney fibroblasts, was obtained from Invivogen (San Diego, USA). The HEK-Blue IL-12 cells were maintained in DMEM (GIBCO) containing 10% FBS (GIBCO), 100 μg/ml Normocin and 1×HEK-Blue selection.
# Specifically, the HEK-Blue IL-12 cell line, which is an IL-12 recognizing cell, was diluted to 2.8×10^5 cells/ml and dispensed at 180 μl/well. Recombinant human IL-12, T1.01m, T1.02m, T1.03m and T1.12m were suspended at 4 nM and diluted by serial dilution. HEK-Blue IL-12 cells were treated with the diluted recombinant human IL-12, T1.01m, T1.02m, T1.03m and T1.12m. After 24 hours of treatment, the cell supernatant was collected and mixed with QUANTI-Blue Solution (Invivogen) in a 96-well plate. The reporter expression level was measured at 620 nm using a spectrophotometer (Thermo Fisher).
# [3] = test system: FAP-overexpressing mouse colorectal cancer CT26; experiment: Tumor growth inhibition by IL-12 mutation, FAP-overexpressing CT26, single i.v. dose; format: in vivo, BALB/c mice; settings: 10 μg i.v. once, FIG. 28
# Experimental: In order to evaluate the change in IL-12 activity according to the presence and extent of amino acid mutation, FAP-overexpressing mouse colorectal cancer CT26 was prepared by resuspending in PBS at a concentration of 5×10^5 cells/100 μl, and the tumor growth inhibitory ability was evaluated in a tumor animal model prepared by transplantation of the cells into 5-week-old female BALB/c mice.
# Specifically, when the size of the tumor in the model reached 100 mm^3, the mice were randomly divided into groups. 100 μl of phosphate buffered saline (PBS) was administered once via tail vein injection of the control, and each of T1.01m, T1.02m and T1.03m was intravenously administered once at a dose of 10 μg.
# [4] = test system: FAP-overexpressing mouse colorectal cancer cell line CT26 cells; experiment: Single administration of T1.03m in FAP-overexpressing CT26 model; format: in vivo, BALB/c mice
# Experimental: Specifically, the tumor cells were transplanted into the right dorsal flank side of 6-week-old BALB/c mice, and when the size of the tumor of the animal model reached 70 to 100 mm^3, the mice were randomly divided into groups and the administration was performed. As the control, PBS was administered, and as the test group, 100 μl of T1.03m was intravenously administered once at a dose of 2 μg, 10 μg and 100 μg. The size of the tumor was measured in the same manner as in Example 4.1.
# [5] = test system: mouse FAP overexpressing B16F10 melanoma; experiment: Melanoma model, mouse FAP overexpressing B16F10; format: in vivo, C57BL/6J mice; settings: during the test period
# Experimental: In order to identify the anticancer effect through immune activation of the fusion protein, mouse FAP was overexpressed in the mouse melanoma cell line B16F10, which is known to have little immune cell infiltration, and then transplanted into C57BL/6J mice, and the tumor growth inhibitory ability was evaluated.
# Specifically, the cells in culture were resuspended in Hanks' Balanced salt solution (HBSS, Gibco), and then 100 μl of 1×10^6 tumor cells per each mouse were transplanted into the subcutaneous region of the left the dorsal flank side of 6-week-old C57BL/6J mice.
# (§1) Next, for drug efficacy evaluation, when the size of the tumor reached 70 to 100 mm^3, the mice were randomly divided into groups. As the control, PBS was administered, and as the test group, T1.03m was intravenously administered once at a dose of 10 μg and 100 μg.
# [6] = test system: LLC1 lung cancer with NIH-3T3 overexpressing FAP; format: in vivo, C57BL/6J mice
# Experimental: Specifically, the NIH-3T3 cell line overexpressing FAP and the LLC1 cells were resuspended in Hanks' Balanced salt solution (HBSS, Gibco) at a concentration of 1×10^6 cells/50 μl, respectively, and the cells were mixed in a 1:1 ratio, and then 100 μl per each mouse was transplanted into the subcutaneous region of the right flank of 6-week-old C57BL/6J mice using a 1 cc syringe (25G).
# as §1
# [7] = test system: LLC1 lung cancer with NIH-3T3 overexpressing FAP; experiment: Cancer targeting efficacy, LLC1 co-injected with FAP overexpressing NIH-3T3; format: in vivo, mouse; settings: FIG. 32
# Source text: In order to compare the anticancer efficacy according to the cancer targeting of the dual antibody-type fusion protein in which the anti-FAP sequence structure and the IL-12 sequence structure form a Knob-in-Hole structure, the tumor growth inhibitory ability was identified in an animal model co-injected with NIH-3T3 cell overexpressing FAP, a mouse fibroblast cell line, and LLC1, a mouse lung cancer cell line, in a 1:1 ratio.
# Specifically, for drug efficacy evaluation, when the size of the tumor reached 70 to 100 mm^3, the mice were randomly divided into groups. As the control, PBS was intraperitoneally administered twice a week. The group administered with T1.16m or T1.17m alone, the group administered with T1.16m and T1.17m in combination (T1.16m+T1.17m), and the group administered with T1.03m were used as test groups to evaluate the tumor growth inhibitory ability. T1.16m and T1.17m, which are dimers of anti-FAP and IL-12, respectively, were intraperitoneally administered twice a week at a dose of 0.01 μg, and T1.03m, which is a monomer fusion protein, was intraperitoneally administered twice a week at a dose of 0.02 μg to observe the tumor growth inhibitory ability.
molecule,measurement,setting,value
B1,Binding to recombinant mouse FAP,[1],may bind to recombinant mouse FAP to specifically target FAP
same,IL-12 recognition / STAT4 reporter gene expression (620 nm absorbance),[2],"IL-12 was recognized, and STAT4 expressed a reporter gene by inducing phosphorylation"
same,tumor growth inhibitory ability compared to the control,"[3]; 15 days after administration, control PBS",excellent tumor growth inhibitory ability
same,tumor growth inhibitory ability compared to the group administered with T1.01m,[3],reduced
same,tumor growth inhibitory ability compared to the control,"[4]; 2 μg, 10 μg and 100 μg i.v. once, control PBS, FIG. 29",high tumor growth inhibitory ability
same,change in body weight,[4]; during the test period,No change in body weight
same,change in body weight,[5],No change in body weight
same,tumor growth inhibitory ability compared to the control,"[6]; 10 μg or 100 μg i.v. once, control PBS, FIG. 31",excellent tumor growth inhibitory ability
same,change in body weight,"[6]; mouse, in vivo",No change in body weight
same,tumor growth inhibitory ability compared to the control,"[7]; 0.02 μg i.p. twice a week, 10 days after administration, control PBS",excellent tumor growth inhibitory ability
same,tumor growth inhibitory ability compared with T1.16m or T1.17m alone and their combination,"[7]; T1.03m 0.02 μg, T1.16m and T1.17m 0.01 μg, i.p. twice a week",excellent tumor growth inhibitory ability
